# Assay results as given in US20110256140A1 (POMONA RICERCA S R L, published 2011).
# Columns and labels:
# Assay in all cases: binding of Fab e20 to H77 E1E2 alanine mutants; method not stated
# [1] = target: H77 E1E2 mutant G530A (Hepatitis C virus genotype 1a, H77) (UniProt P27958)
# [2] = target: H77 E1E2 mutant I413A (Hepatitis C virus genotype 1a, H77) (UniProt P27958)
# [3] = target: H77 E1E2 mutant Y486A (Hepatitis C virus genotype 1a, H77) (UniProt P27958)
# [4] = target: H77 E1E2 mutant T414A (Hepatitis C virus genotype 1a, H77) (UniProt P27958)
# H77 E1E2 mutant P544A = target: T1, H77 E1E2 mutant P544A (Hepatitis C virus genotype 1a, H77, UniProt P27958 384-746)
# T1 construct: Co-expressed with E1; P27958 is the whole polyprotein
# H77 E1E2 mutant W549A = target: T2, H77 E1E2 mutant W549A (Hepatitis C virus genotype 1a, H77, UniProt P27958 384-746)
# T2 construct: Co-expressed with E1; P27958 is the whole polyprotein
# H77 E1E2 mutant G418A = target: T3, H77 E1E2 mutant G418A (Hepatitis C virus genotype 1a, H77, UniProt P27958 384-746)
# T3 construct: Co-expressed with E1; P27958 is the whole polyprotein
# H77 E1E2 mutant N540A = target: T4, H77 E1E2 mutant N540A (Hepatitis C virus genotype 1a, H77, UniProt P27958 384-746)
# T4 construct: Co-expressed with E1; P27958 is the whole polyprotein
# H77 E1E2 mutant W420A = target: T5, H77 E1E2 mutant W420A (Hepatitis C virus genotype 1a, H77, UniProt P27958 384-746)
# T5 construct: Co-expressed with E1; P27958 is the whole polyprotein
# H77 E1E2 mutant S419A = target: T6, H77 E1E2 mutant S419A (Hepatitis C virus genotype 1a, H77, UniProt P27958 384-746)
# T6 construct: Co-expressed with E1; P27958 is the whole polyprotein
# H77 E1E2 mutant Q412A = target: T7, H77 E1E2 mutant Q412A (Hepatitis C virus genotype 1a, H77, UniProt P27958 384-746)
# T7 construct: Co-expressed with E1; P27958 is the whole polyprotein
# H77 E1E2 mutant T416A = target: T8, H77 E1E2 mutant T416A (Hepatitis C virus genotype 1a, H77, UniProt P27958 384-746)
# T8 construct: Co-expressed with E1; P27958 is the whole polyprotein
# H77 E1E2 mutant W487A = target: T9, H77 E1E2 mutant W487A (Hepatitis C virus genotype 1a, H77, UniProt P27958 384-746)
# T9 construct: Co-expressed with E1; P27958 is the whole polyprotein
# H77 E1E2 mutant D535A = target: T10, H77 E1E2 mutant D535A (Hepatitis C virus genotype 1a, H77, UniProt P27958 384-746)
# T10 construct: Co-expressed with E1; P27958 is the whole polyprotein
# H77 E1E2 mutant P545A = target: T11, H77 E1E2 mutant P545A (Hepatitis C virus genotype 1a, H77, UniProt P27958 384-746)
# T11 construct: Co-expressed with E1; P27958 is the whole polyprotein
# H77 E1E2 mutant I422A = target: T12, H77 E1E2 mutant I422A (Hepatitis C virus genotype 1a, H77, UniProt P27958 384-746)
# T12 construct: Co-expressed with E1; P27958 is the whole polyprotein
# H77 E1E2 mutant N423A = target: T13, H77 E1E2 mutant N423A (Hepatitis C virus genotype 1a, H77, UniProt P27958 384-746)
# T13 construct: Co-expressed with E1; P27958 is the whole polyprotein
# H77 E1E2 mutant D533A = target: T14, H77 E1E2 mutant D533A (Hepatitis C virus genotype 1a, H77, UniProt P27958 384-746)
# T14 construct: Co-expressed with E1; P27958 is the whole polyprotein
# H77 E1E2 mutant P484A = target: T15, H77 E1E2 mutant P484A (Hepatitis C virus genotype 1a, H77, UniProt P27958 384-746)
# T15 construct: Co-expressed with E1; P27958 is the whole polyprotein
# H77 E1E2 mutant R483A = target: T16, H77 E1E2 mutant R483A (Hepatitis C virus genotype 1a, H77, UniProt P27958 384-746)
# T16 construct: Co-expressed with E1; P27958 is the whole polyprotein
# H77 E1E2 mutant R543A = target: T17, H77 E1E2 mutant R543A (Hepatitis C virus genotype 1a, H77, UniProt P27958 384-746)
# T17 construct: Co-expressed with E1; P27958 is the whole polyprotein
# H77 E1E2 mutant N417A = target: T18, H77 E1E2 mutant N417A (Hepatitis C virus genotype 1a, H77, UniProt P27958 384-746)
# T18 construct: Co-expressed with E1; P27958 is the whole polyprotein
# H77 E1E2 mutant F550A = target: T19, H77 E1E2 mutant F550A (Hepatitis C virus genotype 1a, H77, UniProt P27958 384-746)
# T19 construct: Co-expressed with E1; P27958 is the whole polyprotein
# H77 E1E2 mutant N532A = target: T20, H77 E1E2 mutant N532A (Hepatitis C virus genotype 1a, H77, UniProt P27958 384-746)
# T20 construct: Co-expressed with E1; P27958 is the whole polyprotein
# H77 E1E2 mutant G547A = target: T21, H77 E1E2 mutant G547A (Hepatitis C virus genotype 1a, H77, UniProt P27958 384-746)
# T21 construct: Co-expressed with E1; P27958 is the whole polyprotein
# H77 E1E2 mutant Y527A = target: T22, H77 E1E2 mutant Y527A (Hepatitis C virus genotype 1a, H77, UniProt P27958 384-746)
# T22 construct: Co-expressed with E1; P27958 is the whole polyprotein
# H77 E1E2 mutant H421A = target: T23, H77 E1E2 mutant H421A (Hepatitis C virus genotype 1a, H77, UniProt P27958 384-746)
# T23 construct: Co-expressed with E1; P27958 is the whole polyprotein
# H77 E1E2 mutant T534A = target: T24, H77 E1E2 mutant T534A (Hepatitis C virus genotype 1a, H77, UniProt P27958 384-746)
# T24 construct: Co-expressed with E1; P27958 is the whole polyprotein
# H77 E1E2 mutant H488A = target: T25, H77 E1E2 mutant H488A (Hepatitis C virus genotype 1a, H77, UniProt P27958 384-746)
# T25 construct: Co-expressed with E1; P27958 is the whole polyprotein
# H77 E1E2 mutant N415A = target: T26, H77 E1E2 mutant N415A (Hepatitis C virus genotype 1a, H77, UniProt P27958 384-746)
# T26 construct: Co-expressed with E1; P27958 is the whole polyprotein
binder,measurement,setting,value
"Fab e20 (Fab, V domains shown, also called e20 antibody fragment) VH: LLEQSGAEVKKPGSSVKVSCKASGDHYGINWVRQAPGQGLEWMGGIIPVFGTTTYAQKFQGRATITADDSTGTAFLELTRLTFDDTAVYFCATPHQLHVLRGGKALSPWDYWGQGT VL: MAELTQSPATLSVSPGERATLSCRASQSVSSNLAWYQQKRGQAPSLLIYGTSTRATGIPARFSGSGSGTEFTLTISSLQSEDFAVYYCQQYNDWPSTFGQGT",e20 binding activity (% of wild-type H77) (% of wild-type H77),[1],3
same,e20 binding activity (% of wild-type H77) (% of wild-type H77),[2],100
same,e20 binding activity (% of wild-type H77) (% of wild-type H77),[3],95
same,e20 binding activity (% of wild-type H77) (% of wild-type H77),[4],95
same,e20 binding activity (% of wild-type H77),H77 E1E2 mutant P544A,72 % of wild-type H77
same,e20 binding activity (% of wild-type H77),H77 E1E2 mutant W549A,96 % of wild-type H77
same,e20 binding activity (% of wild-type H77),H77 E1E2 mutant G418A,100 % of wild-type H77
same,e20 binding activity (% of wild-type H77),H77 E1E2 mutant N540A,70 % of wild-type H77
same,e20 binding activity (% of wild-type H77),H77 E1E2 mutant W420A,97 % of wild-type H77
same,e20 binding activity (% of wild-type H77),H77 E1E2 mutant S419A,100 % of wild-type H77
same,e20 binding activity (% of wild-type H77),H77 E1E2 mutant Q412A,100 % of wild-type H77
same,e20 binding activity (% of wild-type H77),H77 E1E2 mutant T416A,96 % of wild-type H77
same,e20 binding activity (% of wild-type H77),H77 E1E2 mutant W487A,100 % of wild-type H77
same,e20 binding activity (% of wild-type H77),H77 E1E2 mutant D535A,10 % of wild-type H77
same,e20 binding activity (% of wild-type H77),H77 E1E2 mutant P545A,97 % of wild-type H77
same,e20 binding activity (% of wild-type H77),H77 E1E2 mutant I422A,100 % of wild-type H77
same,e20 binding activity (% of wild-type H77),H77 E1E2 mutant N423A,100 % of wild-type H77
same,e20 binding activity (% of wild-type H77),H77 E1E2 mutant D533A,100 % of wild-type H77
same,e20 binding activity (% of wild-type H77),H77 E1E2 mutant P484A,100 % of wild-type H77
same,e20 binding activity (% of wild-type H77),H77 E1E2 mutant R483A,100 % of wild-type H77
same,e20 binding activity (% of wild-type H77),H77 E1E2 mutant R543A,68 % of wild-type H77
same,e20 binding activity (% of wild-type H77),H77 E1E2 mutant N417A,97 % of wild-type H77
same,e20 binding activity (% of wild-type H77),H77 E1E2 mutant F550A,94 % of wild-type H77
same,e20 binding activity (% of wild-type H77),H77 E1E2 mutant N532A,100 % of wild-type H77
same,e20 binding activity (% of wild-type H77),H77 E1E2 mutant G547A,98 % of wild-type H77
same,e20 binding activity (% of wild-type H77),H77 E1E2 mutant Y527A,92 % of wild-type H77
same,e20 binding activity (% of wild-type H77),H77 E1E2 mutant H421A,100 % of wild-type H77
same,e20 binding activity (% of wild-type H77),H77 E1E2 mutant T534A,100 % of wild-type H77
same,e20 binding activity (% of wild-type H77),H77 E1E2 mutant H488A,100 % of wild-type H77
same,e20 binding activity (% of wild-type H77),H77 E1E2 mutant N415A,98 % of wild-type H77
